The supplement of paper PMC9732359
± gives the uncertainty stated by the source.

Assay: protein stability index of a GFP-peptide fusion (yeast GPS) (PSI 1-4); higher = more stable; sorted into four equal gates, so the index is relative within each strain
In short: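 For each peptide, the protein stability index sums the read frequency in every gate after multiplying it by the gate number. Read frequencies came from plasmids that were PCR-amplified from each gate and Illumina-sequenced, with reads assigned to strains by barcodes. The gates were four equal bins of GFP/Cherry fluorescence ratio applied to mid-log yeast in leucine-free medium carrying a pooled library of tiled 17-residue yeast protein peptides fused downstream of GFP on a Cherry-expressing plasmid.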

Sequence | protein stability index (doa10∆) | protein stability index (pdr5∆) | protein stability index (san1∆) | protein stability index (ubr1∆)
SNGIFYGPSFTKRESLN [SIR2] | 2.85 ± 0.065 | 2.83 ± 0.045 | 2.65 ± 0.056 | 3.07 ± 0.039
SNLQRAQNVPMNIIQQQ [GAL11] | 2.47 ± 0.052 | 2.55 ± 0.047 | 2.34 ± 0.078 | 2.34 ± 0.031
SNTTTHVPEKKSTDLTP [MTR3] |  |  | 2.15 ± 0.18 | 1.31 ± 0.29
SNTVNANNYSSNIGNNS [YDL088C/ASM4] | 3.17 ± 0.14 | 3.39 ± 0.14 | 3.33 ± 0.12 | 3.19 ± 0.066
SPGSPAYSPKQDEQKHN [RPO21] | 3.11 ± 0.15 | 3.15 ± 0.11 | 3.2 ± 0.11 | 3.27 ± 0.11
SPPCYIIDHIPGHSLLL [SNF5] | 2.14 ± 0.063 | 2.54 ± 0.057 | 2.3 ± 0.079 | 2.49 ± 0.047
SPPPQTHQSPPPPPQQS [SNF5] | 2.87 ± 0.034 | 2.72 ± 0.029 | 2.75 ± 0.032 | 2.74 ± 0.03
SPQQFLRAHTDDSRNPD [PRE2] | 2.93 ± 0.092 | 3.03 ± 0.069 | 2.7 ± 0.079 | 2.88 ± 0.079
SPSEFVDVAIPCNNRGK [RPS0A] | 1.74 ± 0.096 | 1.97 ± 0.065 | 1.61 ± 0.093 | 1.54 ± 0.096
SPSTSANVPSTATTGKR [RPN4] | 2.16 ± 0.18 | 2.2 ± 0.1 | 2.62 ± 0.11 | 2.65 ± 0.096
SPVRSDSADVPAFSNSN [YMR153W/NUP53] | 3.06 ± 0.096 | 3.07 ± 0.096 | 3.21 ± 0.12 | 2.93 ± 0.057
SQISPEKQTPNKKDKKK [RPN1] | 2.95 ± 0.063 | 2.9 ± 0.1 | 3.09 ± 0.06 | 3.12 ± 0.069
SQLAQVAAFVNNYPNVE [BRR2] | 2.33 ± 0.064 | 2.63 ± 0.068 | 2.68 ± 0.067 | 2.76 ± 0.051
SQLLLERLMISSDAFEV [RET1] | 1.8 ± 0.08 | 2.4 ± 0.044 | 1.98 ± 0.058 | 1.86 ± 0.049
SQNDGFVIIRGSQILSG [RPO31] |  | 3.13 ± 0.17 | 2.86 ± 0.16 | 2.61 ± 0.29
SQPTNSTTTSLHVPNLQ [SMC4] | 1.99 ± 0.043 | 2.4 ± 0.035 | 2.21 ± 0.052 | 2.03 ± 0.027
SQTTLVQFGLNEETFTV [ARP9] | 2.85 ± 0.086 | 2.92 ± 0.072 | 2.77 ± 0.069 | 2.64 ± 0.059
SRGGVTQVRVEFLEDTS [RPS28A] | 3.41 ± 0.071 | 3.15 ± 0.058 | 3.16 ± 0.052 | 3.22 ± 0.05
SRGLFEKKLMQDNKQLY [YDL116W/NUP84] | 2.75 ± 0.067 | 3.06 ± 0.09 | 3.11 ± 0.078 | 2.93 ± 0.1
SRMRLIRQDVNLGRAVF [PRP8] | 2.06 ± 0.085 | 2.31 ± 0.061 | 2.04 ± 0.084 | 2.35 ± 0.054
SRMTVGKMIELISGKAG [RET1] | 3.14 ± 0.17 | 2.98 ± 0.15 | 3.05 ± 0.094 | 3.12 ± 0.13
SRNKALELNLSVLHSWV [YJL039C/NUP192] |  | 2.5 ± 0.14 | 2.84 ± 0.08 | 2.51 ± 0.24
SRPDILSKIKFPESIWK [YCG1] | 2.77 ± 0.049 | 2.04 ± 0.037 | 1.92 ± 0.058 | 2.06 ± 0.029
SSAHLIRINDEPILGQI [YML103C/NUP188] | 2.59 ± 0.084 | 2.9 ± 0.077 | 2 ± 0.14 | 2.45 ± 0.069
SSASPSALTSPTDSSKI [SIR3] | 2.71 ± 0.048 | 3.08 ± 0.055 | 2.87 ± 0.045 | 2.72 ± 0.033

Sequence | protein stability index (doa10∆) | protein stability index (pdr5∆) | protein stability index (san1∆) | protein stability index (ubr1∆)
SSDELKVIEEQLKHTKL [SMC4] | 3.27 ± 0.061 | 3.3 ± 0.077 | 3.04 ± 0.067 | 3.25 ± 0.058
SSEFVSQDTKVICSVTG [RRP46] | 2.67 ± 0.054 | 2.37 ± 0.056 | 2.43 ± 0.076 | 2.58 ± 0.059
SSEGFYSKIKHLGLDDP [SIR2] | 1.83 ± 0.2 | 2.72 ± 0.14 | 1.96 ± 0.17 | 1.2 ± 0.14
SSFNFNKNLPFVWLSSE [SWI1] | 3.05 ± 0.046 | 2.32 ± 0.057 | 1.84 ± 0.053 | 2.4 ± 0.033
SSFTFGSTTIEKKNDEN [YLR335W/NUP2] | 2.79 ± 0.084 | 2.49 ± 0.094 | 3.08 ± 0.063 | 2.99 ± 0.046
SSGQDKKKKKGSNQKPK [RPT2] | 3.08 ± 0.21 | 2.92 ± 0.28 |  | 3.1 ± 0.15
SSIDKKSSILTVLQKNS [YML103C/NUP188] | 1.79 ± 0.063 | 2.42 ± 0.083 | 2.4 ± 0.067 | 2.46 ± 0.058
SSIVAIDWASPEYGRII [YGL100W/SEH1] | 2.57 ± 0.13 | 3.16 ± 0.13 | 2.82 ± 0.079 | 2.69 ± 0.061
SSLNLEDTPANDSSATR [RPB8] | 2.92 ± 0.067 | 2.85 ± 0.065 | 2.68 ± 0.063 | 3.08 ± 0.048
SSNKDLEDEKMKFQESL [SMC4] |  | 2.08 ± 0.26 |  | 
SSNPLGITGNLDRIPMH [COB] | 2.62 ± 0.098 | 2.52 ± 0.077 | 2.44 ± 0.065 | 2.49 ± 0.094
SSPLGFEETKLSTTPTK [SIR4] | 2.57 ± 0.053 | 2.71 ± 0.063 | 2.6 ± 0.054 | 2.67 ± 0.058
SSPSHIELVVTEKEEAV [RPL17A] | 2.08 ± 0.051 | 2.74 ± 0.045 | 2.3 ± 0.059 | 2.08 ± 0.039
SSPYAAMLAAQDVAAKC [RPS14B] | 2.14 ± 0.055 | 1.42 ± 0.055 | 1.3 ± 0.082 | 1.73 ± 0.05
SSSPLAMSETLSKVSLL [PRE8] | 2.53 ± 0.071 | 2.83 ± 0.084 | 2.67 ± 0.1 | 2.32 ± 0.059
SSVEMLLDVVKGTEASN [YDL116W/NUP84] | 2.89 ± 0.071 | 3.1 ± 0.091 | 2.55 ± 0.052 | 2.9 ± 0.063
STAAAPIAAPKKPRKPR [PGD1] | 2.72 ± 0.086 | 3.11 ± 0.076 | 2.75 ± 0.057 | 3.15 ± 0.039
STEETTANTGTIGKRRT [TAF14] | 3.07 ± 0.13 | 3.27 ± 0.1 | 3.38 ± 0.088 | 2.77 ± 0.12
STELNNKQYELFMKSLI [SWI1] | 3.03 ± 0.075 | 2.94 ± 0.058 | 3.16 ± 0.039 | 2.74 ± 0.048
STEYMMQFAKSKTVKVL [RPN6] | 1.1 ± 0.064 | 1.2 ± 0.073 | 1.2 ± 0.2 | 1.07 ± 0.094
STGAADGGYNAQLAKAK [SMC2] | 3.31 ± 0.15 | 3.47 ± 0.11 | 3.22 ± 0.084 | 3.3 ± 0.13
STIDANFADKYDEVKKH [RPL8A] | 2.5 ± 0.12 | 3.08 ± 0.11 | 2.92 ± 0.081 | 2.93 ± 0.1
STKRVTKHPSLKTLTHK [POP7] | 2.56 ± 0.062 | 2.78 ± 0.06 | 2.56 ± 0.083 | 2.64 ± 0.061
STKTGTPSDLSESGSKL [POP1] | 3.4 ± 0.1 | 3.35 ± 0.088 | 3.24 ± 0.055 | 3.35 ± 0.048
STNEDQNNSKHTEDTVN [SRB5] | 2.39 ± 0.1 | 2.1 ± 0.077 | 1.65 ± 0.1 | 2.31 ± 0.051

Sequence | protein stability index (doa10∆) | protein stability index (pdr5∆) | protein stability index (san1∆) | protein stability index (ubr1∆)
STNHPDYDVSKKASEIS [SRP14] |  | 3 ± 0.24 |  | 
STPDQRKRVYNIKFLSK [ESC2] | 3.34 ± 0.22 |  | 2.81 ± 0.08 | 2.93 ± 0.12
STPENVPRLFDLVKPKN [SMC4] | 2.65 ± 0.077 | 3.11 ± 0.087 | 2.65 ± 0.12 | 2.81 ± 0.053
STPGGGSVFNMNGNTNA [YOR098C/NUP1] | 2.87 ± 0.098 | 3.6 ± 0.2 |  | 3.15 ± 0.15
STYKHDRGIANIRNNIE [SRB4] | 3.41 ± 0.19 | 3.27 ± 0.14 | 2.95 ± 0.14 | 3.49 ± 0.13
SVAEKEEIRSQIDHFKS [SWI3] | 1.73 ± 0.046 | 2.42 ± 0.084 | 2.8 ± 0.07 | 2.65 ± 0.055
SVDPQSSSTQNVFVILM [DIS3] | 2.83 ± 0.16 | 2.43 ± 0.17 | 2.7 ± 0.075 | 2.92 ± 0.099
SVINVSAQRDRRYRKRN [RPS17B] |  | 3.04 ± 0.25 | 3.23 ± 0.24 | 
SVKEDVKNNQELDQEYR [SMC4] |  | 3.53 ± 0.25 |  | 3.36 ± 0.14
SVLKDSDDKTRQLSPHT [PRE1] | 2.56 ± 0.088 | 2.72 ± 0.11 | 2.43 ± 0.099 | 2.52 ± 0.067
SVMPPNEVYSAYVVNDT [DLS1] | 2.77 ± 0.087 | 2.95 ± 0.13 | 1.89 ± 0.28 | 3.04 ± 0.082
SVQTFGKKKSATAVAHV [RPS16A] | 2.37 ± 0.065 | 2.49 ± 0.069 | 2.19 ± 0.11 | 2.1 ± 0.069
SVRIDGRKVLQKVQGES [SIR4] | 2.75 ± 0.089 | 3.11 ± 0.067 | 2.98 ± 0.066 | 2.88 ± 0.064
SVRTAVFSALKNLISRI [ECM29] | 2.34 ± 0.049 | 2.31 ± 0.045 | 2.03 ± 0.064 | 2.53 ± 0.035
SVTETESISQTPISNEQ [SRP68] | 2.89 ± 0.099 | 3.01 ± 0.078 | 2.82 ± 0.063 | 2.96 ± 0.082
SWNESEDTLSGYDPIVS [PRP28] | 3.04 ± 0.12 | 3.14 ± 0.12 | 3.19 ± 0.076 | 3.44 ± 0.06
SYFSPINSSNEALVQAF [YCG1] | 2.33 ± 0.063 | 2.19 ± 0.061 | 2.69 ± 0.072 | 2.25 ± 0.042
SYNWGAKAKRRHTTGTG [RPL37A] | 3.37 ± 0.097 | 3.15 ± 0.055 | 3.13 ± 0.078 | 3.34 ± 0.043
TAAEKKERLTKEAAAIA [RPL8B] | 2.15 ± 0.072 | 2.25 ± 0.09 | 1.91 ± 0.11 | 2.33 ± 0.05
TAFALGIACAGKGLQSA [RPN2] | 1.25 ± 0.086 | 1.33 ± 0.11 | 1.3 ± 0.17 | 1.19 ± 0.076
TAKETKMLMNLHKEQWQ [RPN11] | 3.28 ± 0.097 | 3.36 ± 0.082 | 3.5 ± 0.036 | 3.42 ± 0.068
TAKLQMRRFILGTTEGD [RPN14] | 1.41 ± 0.27 | 1.45 ± 0.095 |  | 
TANAKHTSSNSREIAQP [SMB1] | 2.91 ± 0.14 | 2.94 ± 0.099 | 3.19 ± 0.07 | 3.33 ± 0.17
TATLAWGVNLPAHTVII [BRR2] | 1.26 ± 0.065 | 1.4 ± 0.067 | 1.81 ± 0.089 | 1.79 ± 0.064
TATYNDNMSEEQWLRQF [SNF2] | 3.28 ± 0.092 | 3.33 ± 0.12 | 3.27 ± 0.1 | 3.5 ± 0.089
